Results: patent US20190078119A1

Target: AAV8 capsid (native AAV8) (AAV8)
Test: cell-based or functional assay

monoclonal neutralizing antibody ADK8
AAV8 Nab titer (neutralizing antibody titer of the antibody stock): 2560 titer 1:n

monoclonal antibody ADK9
AAV8 Nab titer (neutralizing antibody titer of the antibody stock): 5 titer 1:n

monoclonal antibody ADK8/9
AAV8 Nab titer (neutralizing antibody titer of the antibody stock): 2560 titer 1:n
